Results on one substance are retold here after paper PMC3408433, “Selective Cytotoxicity of Amidinopiperidine Based Compounds Towards Burkitt’s Lymphoma Cells Involves Proteasome Inhibition” (PLoS ONE, 2012).

In this data set the test system is Cc1cc(=O)oc2cc(NC(=O)[C@H](Cc3ccccc3)NC(=O)[C@@H]3CCCN3C(=O)[C@H](C)NC(=O)[C@H](C)NC(=O)CCC(=O)O)ccc12. As to the kind of experiment: purified protein, by the assay type. The settings on record: other: mean of six independent experiments, pH 7.8, 30°C.

Experimental: In short, a 1 nM solution of α-chymotrypsin was mixed with various concentrations of the substrate Suc-Ala-Ala-Pro-Phe-AMC. All the solutions were prepared in 144 mM Tris–HCl, pH 7.8. Substrate hydrolysis was monitored at 30°C on an automated Tecan Safire^2 microplate reader (Tecan, Mannedorf/Zürich, Switzerland). The initial rates of the reactions (ΔF/Δt) were measured immediately after the addition of the substrate (within 200 s) and plotted versus substrate concentration with nonlinear regression to fit a Michaelis-Menten plot. The curve fit and kinetic parameters (Km and v max) were calculated using GraphPad PRISM version 5.0 software (GraphPad Software, Inc., CA, USA). […] The initial velocities of the hydrolysis reactions were measured under the same conditions as described for the determination of Km. 50 µl of α-chymotrypsin solution was added to 50 µl of each inhibitor solution (prepared in 144 mM Tris–HCl, pH 7.8; final concentration 1 nM) and incubated at 30°C for 15 min. The reaction was initiated with the addition of 100 µl of substrate. […] The Ki values were determined as mean values of all measurements.

Regarding α-chymotrypsin (Bos taurus), the Km turned out to be 66 ± 9 µM.
